Source: patent US20260258153A1 (WISTAR INSTITUTE OF ANATOMY AND BIOLOGY, published 2026)

Biological target: carbonic anhydrase 9 (CA9) (UniProt Q16790 38-459)
Test: cell-based or functional assay

B1: BTE (canonical CA9 x CD3 bispecific T cell engager; G37_DBiTE, Non-HLV) (bispecific antibody)
chain: QSVLTQPPSVSGAPGQRVTISCTGSSSNIGAGYDVHWYQHLPGTAPKLLIYGNSNRPSGVPDRFSGSKSGTSASLAITGLQAEDETDYFCQSYDSSLSAWVFGGGTKVTVLGGGGSGGGGSGGGGSQVQLVQSGGGVVQPGGSLRLSCAASGFPFSSYAMSWVRQAPGKGLEWVSAISANGGTTYYADSVKGRFTISRDNSKNTLYLQMNSLRAEDTAVYYCANNGNYRGAFDIWGQGTMVTVSSGGGGSEVQLVESGGGLVQPGGSLRLSCAASGYSFTGYTMNWVRQAPGKGLEWVALINPYKGVSTYNQKFKDRFTISVDKSKNTAYLQMNSLRAEDTAVYYCARSGYYGDSDWYFDVWGQGTLVTVSSGGGGSGGGGSGGGGSDIQMTQSPSSLSASVGDRVTITCRASQDIRNYLNWYQQKPGKAPKLLIYYTSRLESGVPSRFSGSGSGTDYTLTISSLQPEDFATYYCQQGNTLPWTFGQGTKVEIKSSHHHHHH
Q: For B1, which “EC50 (pM), cell line 293T-CA9” value is on record?
A: 13.2 pM

Q: What about the “EC50 (pM), cell line 786-O” value of the same binder?
A: 82.5 pM

Q: And the “EC50 (pM), cell line A-498” value?
A: 21.4 pM

Q: And the “EC50 (pM), cell line ACHN-CA9” value?
A: 38.7 pM

Q: What about the “EC50 (pM), cell line SKRC-52” value of the same binder?
A: 1.5 pM
